Reference: patent US10766960 (dated 2020)
Like-named read-outs stand apart in the source and are kept apart here.

T1: FcgRIIb (human, UniProt P31994)
T1 chain: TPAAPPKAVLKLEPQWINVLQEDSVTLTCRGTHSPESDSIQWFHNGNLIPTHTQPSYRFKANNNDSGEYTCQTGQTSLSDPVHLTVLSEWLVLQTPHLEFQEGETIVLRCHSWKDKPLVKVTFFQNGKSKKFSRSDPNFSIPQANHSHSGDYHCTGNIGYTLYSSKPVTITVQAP


Columns and labels:
Test in all cases: SPR
FcgRIIIa F [1] = biological target: T2, FcgRIIIa F (human, UniProt P08637)
FcgRIIb = biological target: T1, FcgRIIb
FcgRIIIa F [2] = biological target: T2, FcgRIIIa F; remark: listed apart in the source

T2 sequence (P08637 17-208): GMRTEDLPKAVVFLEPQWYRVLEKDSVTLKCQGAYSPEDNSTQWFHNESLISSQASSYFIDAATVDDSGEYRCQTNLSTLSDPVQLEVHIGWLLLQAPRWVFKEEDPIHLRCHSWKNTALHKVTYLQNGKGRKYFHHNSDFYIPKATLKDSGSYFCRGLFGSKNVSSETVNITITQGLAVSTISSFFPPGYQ

Row | Binder | Kd (FcgRIIIa F [1]) | Kd (FcgRIIb) | Kd (FcgRIIIa F [2])
1 | GpH7-TA7/GpH7-B78/GpL16-k0 (antibody) chain 1: QVQLVQSGAEVKKPGASVTVSCKASGYTFTDYEMHWIRQPPGEGLEWIGAIDPKTGDTAYSESFQDRVTLTADKSTSTAYMELSSLTSEDTAVYYCTRFYSYTYWGQGTLVTVSSASTKGPSVFPLAPSSKSTSGGTAALGCLVKDYFPEPVTVSWNSGALTSGVHTFPAVLQSSGLYSLSSVVTVPSSSLGTQTYICNVNHKPSNTKVDKKVEPKSCDKTHTCPPCPAPEYLWGPSVFLFPPKPKDTLMISRTPEVTCVVVDVSHEDPEVKFNWYVDGVEVHNAKTKPREEQYNATYRVVSVLTVLHQDWLNGKEYKCKVSNKALPAPIEKTISKAKGQPREPQVYTLPPSRKELTKNQVSLTCLVKGFYPSDIAVEWESNGQPENNYKTTPPVLDSDGSFFLYSKLTVDKSRWQQGNVFSCSVMHEALHNRYTQKSLSLSP chain 2: QVQLVQSGAEVKKPGASVTVSCKASGYTFTDYEMHWIRQPPGEGLEWIGAIDPKTGDTAYSESFQDRVTLTADKSTSTAYMELSSLTSEDTAVYYCTRFYSYTYWGQGTLVTVSSASTKGPSVFPLAPSSKSTSGGTAALGCLVKDYFPEPVTVSWNSGALTSGVHTFPAVLQSSGLYSLSSVVTVPSSSLGTQTYICNVNHKPSNTKVDKKVEPKSCDKTHTCPPCPAPELLGGPDVFLFPPKPKDTLMISRTPEVTCVVVDVSHEDPEVKFNWYVDGVEVHNAKTKPREEQYNSTYRVVSVLTVLHQDWLNGKEYKCKVSNKALPLPEEKTISKAKGQPREPQVYTLPPSRDELTKNQVSLTCLVKGFYPSDIAVEWESNGQPENNYKTTPPVLDSDGSFFLYSKLTVDKSRWQQGNVFSCSVMHEALHNHYTQESLSLSP chain 3: DIVMTQSPLSLPVTPGEPASISCQASESLVHSNRNTYLHWYLQKPGQSPQLLIYKVSNRFSGVPDRFSGSGSGTDFTLKISRVEAEDVGVYYCSQNTHVPPTFGQGTKVEIERTVAAPSVFIFPPSDEQLKSGTASVVCLLNNFYPREAKVQWKVDNALQSGNSQESVTEQDSKDSTYSLSSTLTLSKADYEKHKVYACEVTHQGLSSPVTKSFNRGEC | 4.1 nM | 1100 nM | 4.7 nM
2 | GpH7-TA22/GpH7-B78/GpL16-k0 (antibody) chain 1: QVQLVQSGAEVKKPGASVTVSCKASGYTFTDYEMHWIRQPPGEGLEWIGAIDPKTGDTAYSESFQDRVTLTADKSTSTAYMELSSLTSEDTAVYYCTRFYSYTYWGQGTLVTVSSASTKGPSVFPLAPSSKSTSGGTAALGCLVKDYFPEPVTVSWNSGALTSGVHTFPAVLQSSGLYSLSSVVTVPSSSLGTQTYICNVNHKPSNTKVDKKVEPKSCDKTHTCPPCPAPEYLWGPDVFLFPPKPKDTLMISRTPEVTCVVVDVSHEDPEVKFNWYVDGVEVHNAKTKPREEQYNATYRVVSVLTVLHQDWLNGKEYKCKVSNKALPAPIEKTISKAKGQPREPQVYTLPPSRKELTKNQVSLTCLVKGFYPSDIAVEWESNGQPENNYKTTPPVLDSDGSFFLYSKLTVDKSRWQQGNVFSCSVMHEALHNRYTQKSLSLSP chain 2: QVQLVQSGAEVKKPGASVTVSCKASGYTFTDYEMHWIRQPPGEGLEWIGAIDPKTGDTAYSESFQDRVTLTADKSTSTAYMELSSLTSEDTAVYYCTRFYSYTYWGQGTLVTVSSASTKGPSVFPLAPSSKSTSGGTAALGCLVKDYFPEPVTVSWNSGALTSGVHTFPAVLQSSGLYSLSSVVTVPSSSLGTQTYICNVNHKPSNTKVDKKVEPKSCDKTHTCPPCPAPELLGGPDVFLFPPKPKDTLMISRTPEVTCVVVDVSHEDPEVKFNWYVDGVEVHNAKTKPREEQYNSTYRVVSVLTVLHQDWLNGKEYKCKVSNKALPLPEEKTISKAKGQPREPQVYTLPPSRDELTKNQVSLTCLVKGFYPSDIAVEWESNGQPENNYKTTPPVLDSDGSFFLYSKLTVDKSRWQQGNVFSCSVMHEALHNHYTQESLSLSP chain 3: DIVMTQSPLSLPVTPGEPASISCQASESLVHSNRNTYLHWYLQKPGQSPQLLIYKVSNRFSGVPDRFSGSGSGTDFTLKISRVEAEDVGVYYCSQNTHVPPTFGQGTKVEIERTVAAPSVFIFPPSDEQLKSGTASVVCLLNNFYPREAKVQWKVDNALQSGNSQESVTEQDSKDSTYSLSSTLTLSKADYEKHKVYACEVTHQGLSSPVTKSFNRGEC | 1.3 nM | – | –
